The values below come from patent US7867500B2, “Cofactor that modulates steroid receptor activities” (The United States of America as represented by the …, priority 2004, dated 2011).

Holding throughout (assay type): cell-based
For data set [1], the target named is T1, thyroid (TR) (β) receptor (Homo sapiens, UniProt P10828).
T1 construct: plus VP16 fused to the indicated full length receptors; expressed in transfected cells; host or cells: CV-1
T1 sequence (P10828 1-461): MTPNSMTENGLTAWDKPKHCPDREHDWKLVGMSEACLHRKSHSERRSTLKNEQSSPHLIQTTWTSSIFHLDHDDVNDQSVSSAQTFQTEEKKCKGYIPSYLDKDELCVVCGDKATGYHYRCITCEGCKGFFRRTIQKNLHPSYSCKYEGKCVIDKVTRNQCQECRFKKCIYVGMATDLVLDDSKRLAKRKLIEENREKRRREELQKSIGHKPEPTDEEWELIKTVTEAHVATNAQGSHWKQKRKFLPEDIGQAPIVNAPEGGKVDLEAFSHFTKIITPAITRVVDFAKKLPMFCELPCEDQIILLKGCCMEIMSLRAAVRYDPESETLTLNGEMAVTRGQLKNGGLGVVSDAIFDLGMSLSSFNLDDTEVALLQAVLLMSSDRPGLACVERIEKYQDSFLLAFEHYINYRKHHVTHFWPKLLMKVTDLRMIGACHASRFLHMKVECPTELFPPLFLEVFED
In words: Mammalian two-hybrid assay with VP16 full length receptor: TRβ. The conditions noted are these: 0.1 μM triiodothyronine. The protocol: (§1) FIG. 6C1-3 illustrate the association of STAMP with assorted steroid/nuclear receptors, including glucocorticoid receptors (GRs), progesterone receptors (PRs), androgen receptors (ARs), estrogen receptors (ER α or β), PPARγ2 receptors, thyroid receptor beta (TR), and retinoid (α) receptors (RAR α or RXR α). Triplicate samples of CV-1 cells were transfected (as described for FIG. 6B) with GAL, or GAL fused to TIF2.4 or STAMP834C, plus VP16 fused to the indicated full length receptors and incubated with the appropriate steroid (1 μM Dex, 20 nM R5020, 1 nM R1881, 0.1 μM triiodothyronine, or 1 μM estradiol, roziglitazone, or 9-cis-retinoic acid). The average relative luciferase activities of 2-3 experiments±S.E.M. were then plotted. FIG. 6C1 illustrates the effects of STAMP association upon GR, PR and AR induced expression. FIG. 6C2 illustrates the effects of STAMP association upon ERα, ERβ and PPARγ2 induced expression. FIG. 6C3 illustrates the effects of STAMP association upon TR, RARα and RXRα induced expression.
(§2) These assays were conducted as described (He et al., 2002). […]

Another data set concerns the target T2, androgen receptors (ARs) (Homo sapiens, UniProt P10275).
T2 construct: plus VP16 fused to the indicated full length receptors; expressed in transfected cells; host or cells: CV-1
T2 sequence (P10275 1-920): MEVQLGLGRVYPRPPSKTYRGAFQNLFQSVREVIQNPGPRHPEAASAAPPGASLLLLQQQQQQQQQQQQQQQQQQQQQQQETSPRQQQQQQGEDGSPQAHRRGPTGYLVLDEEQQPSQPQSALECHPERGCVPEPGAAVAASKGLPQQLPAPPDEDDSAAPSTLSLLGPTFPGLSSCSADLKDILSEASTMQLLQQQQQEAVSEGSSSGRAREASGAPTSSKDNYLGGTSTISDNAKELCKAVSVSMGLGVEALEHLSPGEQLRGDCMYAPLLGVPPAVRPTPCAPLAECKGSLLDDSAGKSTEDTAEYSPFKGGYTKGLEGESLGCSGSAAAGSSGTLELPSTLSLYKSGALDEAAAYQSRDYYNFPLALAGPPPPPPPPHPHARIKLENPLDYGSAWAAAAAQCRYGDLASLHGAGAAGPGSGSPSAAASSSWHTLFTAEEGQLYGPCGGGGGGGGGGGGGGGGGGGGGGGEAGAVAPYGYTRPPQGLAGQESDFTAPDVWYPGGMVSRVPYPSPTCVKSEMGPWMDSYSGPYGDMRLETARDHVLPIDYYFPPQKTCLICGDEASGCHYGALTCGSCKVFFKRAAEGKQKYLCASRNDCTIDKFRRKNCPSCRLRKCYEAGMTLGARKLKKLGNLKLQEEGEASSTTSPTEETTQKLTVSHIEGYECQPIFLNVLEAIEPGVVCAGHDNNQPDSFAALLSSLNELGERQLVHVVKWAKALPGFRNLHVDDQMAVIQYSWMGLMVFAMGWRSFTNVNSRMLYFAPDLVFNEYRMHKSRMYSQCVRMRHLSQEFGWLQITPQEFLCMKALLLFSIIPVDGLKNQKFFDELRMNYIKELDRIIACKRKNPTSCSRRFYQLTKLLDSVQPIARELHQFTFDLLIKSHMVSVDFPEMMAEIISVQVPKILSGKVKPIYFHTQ
T2 sequence (Q6EMB2 838-1281 F1267S partner limits assumed): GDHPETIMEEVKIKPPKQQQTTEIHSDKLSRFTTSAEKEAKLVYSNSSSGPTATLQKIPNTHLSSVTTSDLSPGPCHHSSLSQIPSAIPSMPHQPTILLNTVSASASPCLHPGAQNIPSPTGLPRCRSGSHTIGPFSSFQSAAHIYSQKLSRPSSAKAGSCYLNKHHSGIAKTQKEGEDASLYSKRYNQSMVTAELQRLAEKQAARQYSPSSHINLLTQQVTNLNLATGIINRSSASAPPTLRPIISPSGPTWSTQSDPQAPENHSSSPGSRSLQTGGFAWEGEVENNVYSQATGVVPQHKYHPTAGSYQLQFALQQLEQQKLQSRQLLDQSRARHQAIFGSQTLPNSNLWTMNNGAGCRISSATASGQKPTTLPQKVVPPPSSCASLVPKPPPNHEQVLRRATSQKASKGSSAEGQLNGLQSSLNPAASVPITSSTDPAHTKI
Nature of the data set: Mammalian two-hybrid assay with VP16 full length receptor: AR. The settings on record: 1 nM R1881. The protocol: as §1, §2

The next data set deals with T3, thyroid receptor β (TRβ) (Homo sapiens, UniProt P10828).
T3 construct: the whole cell actions of TIF2 with full length AR and TRβ; expressed in transfected cells; host or cells: CV-1
T3 sequence (P10828 1-461): T1 sequence (P10828 1-461)
In words: TRβ-mediated induction of reporter in CV-1 cells. The conditions noted are these: triiodothyronine; regardless of whether TIF2 is present. The protocol: FIG. 6D1-2 illustrate the effects of STAMP and TIF2 on androgen receptor (AR, FIG. 6D1) and thyroid receptor β (TRβ, FIG. 6D2) expression. […] Luciferase activities, normalized to the internal Renilla control values, and the fold changes in EC50 and fold induction were determined and plotted as in FIG. 4B.

For a further data set, the target named is T4, PCAF (Homo sapiens, UniProt Q92831).
T4 construct: expressed in transfected cells; host or cells: CV-1 (the same two-hybrid assay)
T4 sequence (Q92831 whole entry, species assumed): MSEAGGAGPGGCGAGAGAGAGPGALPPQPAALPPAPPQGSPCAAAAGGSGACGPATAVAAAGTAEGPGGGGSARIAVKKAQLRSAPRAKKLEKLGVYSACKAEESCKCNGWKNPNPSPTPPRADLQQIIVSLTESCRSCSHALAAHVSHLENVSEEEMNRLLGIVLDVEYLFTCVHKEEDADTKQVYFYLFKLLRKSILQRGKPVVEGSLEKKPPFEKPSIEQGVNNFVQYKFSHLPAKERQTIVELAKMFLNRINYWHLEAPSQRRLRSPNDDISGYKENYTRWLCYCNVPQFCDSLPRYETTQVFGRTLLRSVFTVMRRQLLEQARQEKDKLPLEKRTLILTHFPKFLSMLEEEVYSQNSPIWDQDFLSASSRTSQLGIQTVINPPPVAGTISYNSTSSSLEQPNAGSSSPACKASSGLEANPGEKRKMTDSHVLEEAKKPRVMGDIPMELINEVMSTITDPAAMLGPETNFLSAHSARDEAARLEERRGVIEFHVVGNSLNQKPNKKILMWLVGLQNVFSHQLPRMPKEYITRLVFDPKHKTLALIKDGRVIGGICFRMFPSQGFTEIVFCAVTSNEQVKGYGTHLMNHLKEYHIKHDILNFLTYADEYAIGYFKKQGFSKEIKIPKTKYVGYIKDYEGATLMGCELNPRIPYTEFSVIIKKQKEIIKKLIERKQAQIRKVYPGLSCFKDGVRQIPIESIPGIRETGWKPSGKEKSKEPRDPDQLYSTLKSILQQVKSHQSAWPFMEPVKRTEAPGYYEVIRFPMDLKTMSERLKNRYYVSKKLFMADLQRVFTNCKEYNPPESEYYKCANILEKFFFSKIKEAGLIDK
Nature of the data set: Mammalian two-hybrid assay with PCAF. The conditions noted are these: data not shown. The protocol:
These assays were conducted as described (He et al., 2002). In particular, the recommended procedure for the Mammalian Matchmaker two-hybrid assay kit (Clontech) was modified slightly by changing from a chloramphenicol acetyltransferase reporter to a Luciferase Reporter pFRLuc (Stratagene), which is under the control of five repeats of the upstream activating sequence for the binding of GAL4.

B1: STAMP834C: STAMP fragment amino acids 834-1277, receptor interaction domain (RID) (protein)
chain: T2 sequence (Q6EMB2 838-1281 F1267S partner limits assumed)
Regarding B1, in data set [1], the “interaction with thyroid receptor β” value is listed as “lack of interaction”. For the same molecule, the “interaction with agonist-bound, full length AR” value in the data set with androgen receptors (ARs) is given as “interacted”.

B2: STAMP: SRC-1 and TIF2 Associated Modulatory Protein, 1277 amino acid human polypeptide, expressed from transfected plasmid (protein)
chain: MARDLEETASSSEDEEVISQEDHPCIMWTGGCRRIPVLVFHADAILTKDNNIRVIGERYHLSYKIVRTDSRLVRSILTAHGFHEVHPSSTDYNLMWTGSHLKPFLLRTLSEAQKVNHFPRSYELTRKDRLYKNIIRMQHTHGFKVFHILPQTFLLPAEYAEFCNSYSKDRGPWIVKPVASSRGRGVYLINNPNQISLEENILVSRYINNPLLIDDFKFDVRLYVLVTSYDPLVIYLYEEGLARFATVRYDQGAKNIRNQFMHLTNYSVNKKSGDYVSCDDPEVEDYGNKWSMSAMLRYLKQEGRDTTALMAHVEDLIIKTIISAELAIATACKTFVPHRSSCFELYGFDVLIDSTLKPWLLEVNLSPSLACDAPLDLKIKASMISDMFTVVGFVCQDPAQRASTRPIYPTFESSRRNPFQKPQRCRPLSASDAEMKNLVGSAREKGPGKLGGSVLGLSMEEIKVLRRVKEENDRRGGFIRIFPTSETWEIYGSYLEHKTSMNYMLATRLFQDRMTADGAPELKIESLNSKAKLHAALYERKLLSLEVRKRRRRSSRLRAMRPKYPVITQPAEMNVKTETESEEEEEVALDNEDEEQEASQEESAGFLRENQAKYTPSLTALVENTPKENSMKVREWNNKGGHCCKLETQELEPKFNLMQILQDNGNLSKMQARIAFSAYLQHVQIRLMKDSGGQTFSASWAAKEDEQMELVVRFLKRASNNLQHSLRMVLPSRRLALLERRRILAHQLGDFIIVYNKETEQMAEKKSKKKVEEEEEDGVNMENFQEFIRQASEAELEEVLTFYTQKNKSASVFLGTHSKISKNNNNYSDSGAKGDHPETIMEEVKIKPPKQQQTTEIHSDKLSRFTTSAEKEAKLVYSNSSSGPTATLQKIPNTHLSSVTTSDLSPGPCHHSSLSQIPSAIPSMPHQPTILLNTVSASASPCLHPGAQNIPSPTGLPRCRSGSHTIGPFSSFQSAAHIYSQKLSRPSSAKAGSCYLNKHHSGIAKTQKEGEDASLYSKRYNQSMVTAELQRLAEKQAARQYSPSSHINLLTQQVTNLNLATGIINRSSASAPPTLRPIISPSGPTWSTQSDPQAPENHSSSPGSRSLQTGGFAWEGEVENNVYSQATGVVPQHKYHPTAGSYQLQFALQQLEQQKLQSRQLLDQSRARHQAIFGSQTLPNSNLWTMNNGAGCRISSATASGQKPTTLPQKVVPPPSSCASLVPKPPPNHEQVLRRATSQKASKGSSAEGQLNGLQSSLNPAASVPITSSTDPAHTKI
In the case of B2, in the data set with thyroid receptor β (TRβ), the “increase of the fold induction with TRβ” value is recorded as “little ability” and the “left-shift in the dose-response curve with TRβ” value is “little ability”.

B3: 6-6CL1: STAMP fragment amino acids 623-834, coactivator interaction domain (CID) (protein)
chain: ENTPKENSMKVREWNNKGGHCCKLETQELEPKFNLMQILQDNGNLSKMQARIAFSAYLQHVQIRLMKDSGGQTFSASWAAKEDEQMELVVRFLKRASNNLQHSLRMVLPSRRLALLERRRILAHQLGDFIIVYNKETEQMAEKKSKKKVEEEEEDGVNMENFQEFIRQASEAELEEVLTFYTQKNKSASVFLGTHSKISKNNNNYSDSGAKG
For the molecule B3, the “association with PCAF” value with PCAF is “negligible association”.
